Consider one molecule from US20130095480A1 (BOARD OF TRUSTEES OF THE UNIVERSITY OF ARKANSAS, published 2013).

This assay addresses T1, Chondroitin Sulfate Proteoglycan 4 (CSPG4) (human, UniProt Q6UVK1 30-2322, carries chondroitin sulfate (CS) glycosaminoglycan chains).
T1 construct: whole, on cells; also called High Molecular Weight Melanoma Associated Antigen; Melanoma Chondroitin Sulfate Proteoglycan
The experiment in a line: flow cytometry, recombinant P-selectin/Fc on M14-CSPG4 versus mock-transfected M14 cells. Here is the method: Briefly, cells were incubated with mAb or P-selectin/Fc, washed and stained with FITC-conjugated anti-mouse IgM or anti-human IgG prior to binding detection by flow cytometry. R-phycoerythrin-conjugated polyclonal goat anti-mouse F(ab′)₂ was used as secondary for detection of anti-CSPG4 binding.

T1 sequence (Q6UVK1 30-2322): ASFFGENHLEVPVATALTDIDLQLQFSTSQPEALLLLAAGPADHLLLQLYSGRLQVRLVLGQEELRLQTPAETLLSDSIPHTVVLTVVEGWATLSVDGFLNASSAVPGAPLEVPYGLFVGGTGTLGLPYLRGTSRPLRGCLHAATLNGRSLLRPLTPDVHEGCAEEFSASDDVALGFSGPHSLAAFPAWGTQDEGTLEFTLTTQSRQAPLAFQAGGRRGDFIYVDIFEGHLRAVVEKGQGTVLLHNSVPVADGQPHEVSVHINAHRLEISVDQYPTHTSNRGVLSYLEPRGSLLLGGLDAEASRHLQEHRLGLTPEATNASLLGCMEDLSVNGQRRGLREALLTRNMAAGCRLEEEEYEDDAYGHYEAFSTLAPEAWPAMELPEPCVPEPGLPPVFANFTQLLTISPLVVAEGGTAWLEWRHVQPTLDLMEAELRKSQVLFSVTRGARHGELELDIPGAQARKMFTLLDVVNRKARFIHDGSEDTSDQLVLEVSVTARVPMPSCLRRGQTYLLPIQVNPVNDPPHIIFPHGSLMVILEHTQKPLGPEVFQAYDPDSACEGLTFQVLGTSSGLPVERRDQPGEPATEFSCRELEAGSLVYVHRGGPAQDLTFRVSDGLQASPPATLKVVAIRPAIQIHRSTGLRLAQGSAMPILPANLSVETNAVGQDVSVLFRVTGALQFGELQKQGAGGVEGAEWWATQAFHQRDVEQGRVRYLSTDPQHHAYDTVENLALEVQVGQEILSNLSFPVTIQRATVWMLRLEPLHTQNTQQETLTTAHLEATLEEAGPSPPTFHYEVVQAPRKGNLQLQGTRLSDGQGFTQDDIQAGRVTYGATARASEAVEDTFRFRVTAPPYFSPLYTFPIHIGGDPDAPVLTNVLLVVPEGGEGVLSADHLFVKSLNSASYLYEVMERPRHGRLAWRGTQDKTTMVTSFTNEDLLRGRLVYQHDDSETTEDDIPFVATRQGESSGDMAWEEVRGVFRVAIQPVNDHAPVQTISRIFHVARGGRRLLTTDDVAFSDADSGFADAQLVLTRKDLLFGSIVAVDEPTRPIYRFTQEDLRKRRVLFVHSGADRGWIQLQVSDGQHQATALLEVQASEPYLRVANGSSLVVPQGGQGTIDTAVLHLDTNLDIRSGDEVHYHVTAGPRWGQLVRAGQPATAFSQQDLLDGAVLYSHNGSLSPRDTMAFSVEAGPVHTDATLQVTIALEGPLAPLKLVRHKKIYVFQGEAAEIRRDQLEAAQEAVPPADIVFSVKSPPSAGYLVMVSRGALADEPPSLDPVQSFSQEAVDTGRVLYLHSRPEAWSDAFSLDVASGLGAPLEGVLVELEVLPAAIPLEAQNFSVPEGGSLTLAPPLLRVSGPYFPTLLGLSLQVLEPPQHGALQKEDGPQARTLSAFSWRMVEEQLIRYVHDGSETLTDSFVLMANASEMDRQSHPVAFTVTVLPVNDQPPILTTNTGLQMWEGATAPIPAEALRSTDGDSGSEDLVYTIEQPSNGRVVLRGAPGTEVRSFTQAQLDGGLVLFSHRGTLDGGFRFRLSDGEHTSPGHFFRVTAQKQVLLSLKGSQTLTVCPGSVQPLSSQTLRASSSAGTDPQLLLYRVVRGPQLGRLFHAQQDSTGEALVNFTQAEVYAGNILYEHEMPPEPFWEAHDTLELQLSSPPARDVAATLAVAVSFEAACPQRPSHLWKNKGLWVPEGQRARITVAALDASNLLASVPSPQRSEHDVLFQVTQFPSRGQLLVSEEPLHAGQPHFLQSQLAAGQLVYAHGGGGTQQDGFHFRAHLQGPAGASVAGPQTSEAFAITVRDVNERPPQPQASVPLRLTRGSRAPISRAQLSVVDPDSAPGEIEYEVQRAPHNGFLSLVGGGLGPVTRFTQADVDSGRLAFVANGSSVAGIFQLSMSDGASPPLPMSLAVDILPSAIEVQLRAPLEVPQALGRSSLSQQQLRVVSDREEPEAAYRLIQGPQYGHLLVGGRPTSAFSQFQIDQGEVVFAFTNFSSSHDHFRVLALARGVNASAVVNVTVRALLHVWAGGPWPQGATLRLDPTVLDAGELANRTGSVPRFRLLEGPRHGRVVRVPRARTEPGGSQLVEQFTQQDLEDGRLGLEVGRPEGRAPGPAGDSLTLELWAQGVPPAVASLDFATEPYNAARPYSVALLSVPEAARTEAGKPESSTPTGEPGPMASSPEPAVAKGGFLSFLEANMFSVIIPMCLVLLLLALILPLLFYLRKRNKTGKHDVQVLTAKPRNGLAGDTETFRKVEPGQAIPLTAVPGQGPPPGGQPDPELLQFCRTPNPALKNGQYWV

B1: recombinant human P-selectin/Fc (human IgG) (Fc fusion, UniProt P16109 42-771, looked up)
chain: WTYHYSTKAYSWNISRKYCQNRYTDLVAIQNKNEIDYLNKVLPYYSSYYWIGIRKNNKTWTWVGTKKALTNEAENWADNEPNNKRNNEDCVEIYIKSPSAPGKWNDEHCLKKKHALCYTASCQDMSCSKQGECLETIGNYTCSCYPGFYGPECEYVRECGELELPQHVLMNCSHPLGNFSFNSQCSFHCTDGYQVNGPSKLECLASGIWTNKPPQCLAAQCPPLKIPERGNMTCLHSAKAFQHQSSCSFSCEEGFALVGPEVVQCTASGVWTAPAPVCKAVQCQHLEAPSEGTMDCVHPLTAFAYGSSCKFECQPGYRVRGLDMLRCIDSGHWSAPLPTCEAISCEPLESPVHGSMDCSPSLRAFQYDTNCSFRCAEGFMLRGADIVRCDNLGQWTAPAPVCQALQCQDLPVPNEARVNCSHPFGAFRYQSVCSFTCNEGLLLVGASVLQCLATGNWNSVPPECQAIPCTPLLSPQNGTMTCVQPLGSSSYKSTCQFICDEGYSLSGPERLDCTRSGRWTDSPPMCEAIKCPELFAPEQGSLDCSDTRGEFNVGSTCHFSCDNGFKLEGPNNVECTTSGRWSATPPTCKGIASLPTPGVQCPALTTPGQGTMYCRHHPGTFGFNTTCYFGCNAGFTLIGDSTLSCRPSGQWTAVTPACRAVKCSELHVNKPIAMNCSNLWGNFSYGSICSFHCLEGQLLNGSAQTACQENGHWSTTVPTCQAGPLTIQEA
notes: Bought reagent (R&D Systems); also called recombinant P-selectin; not shown: Fc of human IgG
For B1, the binding result is “binds”.
